The text below walks through data of US20080070791A1 (ZEPHYR PROTEOMIX, published 2008).

In this test the target is T1, α4β1 integrin expressed on Jurkat cells (human, UniProt P13612 34-1032; P05556 21-798).
T1 construct: whole, on cells; Fluorescence-labeled Jurkat cells applied to the microarray; also called receptor recognizing the CS1 peptide
The test is described as follows: cell adhesion of labeled Jurkat cells on microarray.

T1 sequence (P13612 34-1032, chain 1 of 2): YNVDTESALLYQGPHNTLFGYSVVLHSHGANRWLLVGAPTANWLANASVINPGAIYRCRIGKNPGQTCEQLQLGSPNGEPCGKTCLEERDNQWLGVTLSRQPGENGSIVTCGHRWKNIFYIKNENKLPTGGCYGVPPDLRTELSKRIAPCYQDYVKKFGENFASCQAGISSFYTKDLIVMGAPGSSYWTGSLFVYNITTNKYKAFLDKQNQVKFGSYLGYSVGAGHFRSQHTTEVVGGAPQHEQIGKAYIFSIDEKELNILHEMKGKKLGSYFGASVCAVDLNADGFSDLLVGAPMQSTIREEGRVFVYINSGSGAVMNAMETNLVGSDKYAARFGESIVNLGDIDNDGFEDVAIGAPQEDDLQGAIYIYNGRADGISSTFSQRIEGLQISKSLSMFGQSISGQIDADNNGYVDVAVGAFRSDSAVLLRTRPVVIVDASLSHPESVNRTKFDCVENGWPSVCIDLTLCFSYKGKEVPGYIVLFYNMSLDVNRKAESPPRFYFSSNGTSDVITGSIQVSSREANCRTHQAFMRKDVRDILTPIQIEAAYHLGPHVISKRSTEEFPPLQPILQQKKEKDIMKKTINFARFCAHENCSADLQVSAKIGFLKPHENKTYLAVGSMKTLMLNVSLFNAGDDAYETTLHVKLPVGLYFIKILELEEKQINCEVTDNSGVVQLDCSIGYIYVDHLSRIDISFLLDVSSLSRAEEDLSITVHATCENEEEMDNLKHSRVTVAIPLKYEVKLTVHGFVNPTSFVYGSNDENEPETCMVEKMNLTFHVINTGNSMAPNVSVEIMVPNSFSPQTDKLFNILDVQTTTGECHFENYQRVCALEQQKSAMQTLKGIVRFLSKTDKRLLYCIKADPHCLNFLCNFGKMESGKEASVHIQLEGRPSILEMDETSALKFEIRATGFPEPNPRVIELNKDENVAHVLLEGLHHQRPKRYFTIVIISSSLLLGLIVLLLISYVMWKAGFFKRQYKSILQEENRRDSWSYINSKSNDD
T1 sequence (P05556 21-798, chain 2 of 2): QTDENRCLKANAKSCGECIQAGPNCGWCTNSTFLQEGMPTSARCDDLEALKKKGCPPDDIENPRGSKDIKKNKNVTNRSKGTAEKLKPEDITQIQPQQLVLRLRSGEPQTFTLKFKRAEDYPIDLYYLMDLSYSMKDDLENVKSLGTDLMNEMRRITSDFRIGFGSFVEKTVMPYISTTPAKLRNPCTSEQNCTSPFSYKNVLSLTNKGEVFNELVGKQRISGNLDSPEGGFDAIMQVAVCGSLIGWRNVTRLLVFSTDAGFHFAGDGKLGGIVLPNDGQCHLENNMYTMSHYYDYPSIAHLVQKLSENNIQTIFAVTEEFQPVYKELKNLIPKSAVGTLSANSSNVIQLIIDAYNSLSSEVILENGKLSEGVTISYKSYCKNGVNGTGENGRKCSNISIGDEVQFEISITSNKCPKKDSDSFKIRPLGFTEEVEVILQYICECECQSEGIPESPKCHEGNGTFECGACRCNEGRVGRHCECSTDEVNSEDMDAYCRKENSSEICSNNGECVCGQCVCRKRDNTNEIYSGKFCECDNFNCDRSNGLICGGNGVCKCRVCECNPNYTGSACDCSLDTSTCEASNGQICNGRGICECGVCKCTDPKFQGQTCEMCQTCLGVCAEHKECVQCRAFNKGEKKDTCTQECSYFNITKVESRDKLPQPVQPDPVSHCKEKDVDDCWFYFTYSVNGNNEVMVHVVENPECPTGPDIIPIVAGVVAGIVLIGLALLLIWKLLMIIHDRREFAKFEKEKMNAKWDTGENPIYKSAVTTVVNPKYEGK
Procedure: Jurkat T-cells, a human leukemia line, were grown under the appropriate growing conditions. Shortly before the adherence assay, cells were washed with 5 mM EDTA in Tris-buffered saline (TBS, 10 mM Tris-HCl, pH 7.4, 150 mM NaCl) and then incubated with Cyto 82 (2 μM final concentration) for 30 min under continuous agitation. Labeled cells were washed twice with the same buffer and applied directly on the fabricated microarray slides.
The model of interaction chosen for this purpose was α4β1-CS1-interaction model. α4β1 is an integrin expressed by several types of adherent cells and can mediate cell matrix contact trough the known ligand fibronectin. […] The slides were washed extensively and the interaction was scanned by the microarray scanner (FIG. 12).

B1: recombinant protein comprising the cellulose binding region of SEQ ID NO:4 (other)
chain: NATPTKGATPTNTATPTKSATATPTRPSVPTNTPTNTPANTPVSGNLKVEFYNSNPSDTTNSINPQFKVTNTGSSAIDLSKLTLRYYYTVDGQKDQTFWCDHAAIIGSNGSYNGITSNVKGTFVKMSSSTNNADTYLEISFTGGTLEPGAHVQIQGRFAKNDWSNYTQSNDYSFKSASQFVEWDQVTAYLNGVLVWGKEPGGSVVPSTQPVTTPPATTKPPATTKPPATTIPPSDDPNA
Turning to B1, the binding result is listed as “no binding (tested: highest array concentration)”.
